Non-standard residues stand in square brackets, D forms with d. No end group written: not given here. pY = N[C@@H](Cc1ccc(OP(=O)(O)O)cc1)C(=O)O; pS = N[C@@H](COP(=O)(O)O)C(=O)O

We go through 9 molecules from paper PMC5651433 (Alzheimer's & Dementia : Translational Research & Clinical …, 2017).

Series [1] concerns the target endogenous Aβ (AD hippocampus) (human (endogenous in postmortem hippocampus)). In words: FRET or BRET. (In general: In BRET a luciferase serves as donor, and the signal depends on an acceptor being close.)
Series [2] concerns the molecule itself. In words: nonreducing SDS-PAGE of peptide polymers.
Series [3] deals with the molecule itself. As to the kind of experiment: reducing SDS-PAGE and Western blotting of SDS-resistant polymers. (A western blot detects proteins with antibodies after separation by electrophoresis.)

Turning to “endogenous Zfra (human hippocampus) (natural protein)”, the FRETc in series [1] is over 45.

B1: pS14-WWOX7-21 (peptide)
chain: AGLDDTD[pS]EDELPPG
On to B1, for which, in series [2], the binding result was “binds”.

B2: ANKRD40266-281 (peptide)
chain: RIQNPSLRENDFIEIE
In the case of B2, in series [2], the binding result is on record as “binds”.

B3: WWOX286-299 (peptide)
chain: DYWAMLAYNRSKLC
Turning to B3, the binding result in series [2] was “binds”.

B4: pS271-ANKRD40266-281 (peptide)
chain: RIQNP[pS]LRENDFIEIE
Consider B4, for which the binding result in series [2] was “binds”.

B5: Zfra1–31 (zinc finger-like protein that regulates apoptosis, full-length synthetic peptide) (peptide)
chain: MSSRRSSSCKYCEQDFRAHTQKNAATPFLAN
Take B5: the binding result in series [3] is recorded as “binds”.

B6: WWOX7-21 (peptide)
chain: AGLDDTDSEDELPPG
For the molecule B6, the binding result in series [2] was “binds”.

B7: pY287-WWOX286-299 (peptide)
chain: D[pY]WAMLAYNRSKLC
As for B7, the binding result in series [2] is on record as “binds”.

B8: pS35-TPC6A24-38 (peptide)
chain: DPGPGGQKMSL[pS]VLE
Regarding B8, the binding result in series [2] is reported as “binds”.
